Measurements from publication PMC6724690 (Molecular Biology of the Cell, 2019).
Each block holds one binder with its values, some of them ahead of it.

Columns and labels:
[1] = target: porcine αβ-tubulin, as dynamic microtubules polymerizing from soluble αβ-tubulin (porcine) (UniProt P02550); assay: TIRF microscopy of dynamic microtubules
[2] = target: porcine αβ-tubulin, as dynamic microtubules polymerizing from soluble αβ-tubulin (porcine) (UniProt P02550); assay: single-molecule TIRF microscopy of dynamic microtubules
[3] = target: the molecule itself; assay: single-molecule fluorescence intensity distribution

average MT plus-end tracking ratio [1]: 0.89
average tracking time at MT plus ends [1]: 125 s
B1: Alp14 (residues 1–690) C-terminally fused to mNeonGreen (domain or fragment)
chain: MSQDQEEDYSKLPLESRIVHKVWKVRLSAYEECSKSFSLSADGSDNCFELWNNQSELWKSVLTDSNVAAQEAGTAAFVAYCRFSDPSHLLKAREISVLSISEKCLTSPRAGTRENALEALMLLVEADSAAPVIESIIPSLSARSPKVIASNVAAIASLVEQFGAKVIPSKMIIPHISNLFGHADKNVRKEASRLTVNIYRWTGDPLKDLLFKDLRPVQTKELESLFAELPTEPPKQTRFLKSQQPTSEPNVETQVEEQPALENEESEPEPSDDQFDLVEEVDVLPNVDPNLETLMASSKWKDRKEALDKLLPVLSQPKIKDNDFFNLVAILTKSVSKDANIMVVINAAHCIQAMAKGLRSNFSKYASTSINALLERSKEKKANVIESLSSAMDAVLATSSLDDLAELIASFAGNKNPQIKSSCFSLFSRSFSNMTSLPSKFTVDTCAKACVPGVSDTFEPVRSAAAEALGVLMKLVGERAINQYLSPLDDIRKSKIRSFYETATVKAKAPTKKSKVKPSKQEESKVVVPSNAKAVKKSVVPSSPVVPSPRKATNKSLSMDVSKGNAFENGPLLPRPTTRPVSRGLSRGTSSSLQQKVKASTPLNSGALNETVQNLKNMELDDPAPQPAKHSRVDRYEHPKVLEDNDSTISSLESLKRENEELREQLKVEHEENISMQKQLSELKGELNTL

mean dwell time at polymerizing MT plus ends [2]: 129 s
B2: C-terminal-SNAPf-tagged Alp14 (residues 1–690), labelled with SNAP-surface Atto-488 (domain or fragment, S. pombe, UniProt O94534 1-690, looked up)
chain: B1 chain
modifications: SNAP-surface Atto-488 fluorophore covalently attached to the SNAP tag
stoichiometry N [3]: 2
